According to US5869641:

Biological target: CD4 (extracellular domain, aa 1-370) (Homo sapiens) (UniProt P01730)
Assay: flow
Details: 2'-F on all C and U; +-0.08; multimeric SA-PE complex, 3.2 RNA per SA-PE; L200-CD4 beads, PBS, 2 mM MgCl2, BSA, room temp

Sequence: GGGAGACAAGAAUAAACGCUCAANNNNNNNNNNNNNNNNNNNNNNNNNNNNNNNNNNNNNNNNUUCGACAGGAGGCUCACAACAGGC [15th round enriched RNA pool]
- Kd: 1.5 nM
